Data taken from patent US20230295258A1.

Molecular target: IL-12 receptor of human T cells (human) (UniProt P42701)
Experiment: cell-based or functional assay

Sequence of IL-12 receptor of human T cells (human) (Q99665 24-862, chain 2 of 2, other chains not shown): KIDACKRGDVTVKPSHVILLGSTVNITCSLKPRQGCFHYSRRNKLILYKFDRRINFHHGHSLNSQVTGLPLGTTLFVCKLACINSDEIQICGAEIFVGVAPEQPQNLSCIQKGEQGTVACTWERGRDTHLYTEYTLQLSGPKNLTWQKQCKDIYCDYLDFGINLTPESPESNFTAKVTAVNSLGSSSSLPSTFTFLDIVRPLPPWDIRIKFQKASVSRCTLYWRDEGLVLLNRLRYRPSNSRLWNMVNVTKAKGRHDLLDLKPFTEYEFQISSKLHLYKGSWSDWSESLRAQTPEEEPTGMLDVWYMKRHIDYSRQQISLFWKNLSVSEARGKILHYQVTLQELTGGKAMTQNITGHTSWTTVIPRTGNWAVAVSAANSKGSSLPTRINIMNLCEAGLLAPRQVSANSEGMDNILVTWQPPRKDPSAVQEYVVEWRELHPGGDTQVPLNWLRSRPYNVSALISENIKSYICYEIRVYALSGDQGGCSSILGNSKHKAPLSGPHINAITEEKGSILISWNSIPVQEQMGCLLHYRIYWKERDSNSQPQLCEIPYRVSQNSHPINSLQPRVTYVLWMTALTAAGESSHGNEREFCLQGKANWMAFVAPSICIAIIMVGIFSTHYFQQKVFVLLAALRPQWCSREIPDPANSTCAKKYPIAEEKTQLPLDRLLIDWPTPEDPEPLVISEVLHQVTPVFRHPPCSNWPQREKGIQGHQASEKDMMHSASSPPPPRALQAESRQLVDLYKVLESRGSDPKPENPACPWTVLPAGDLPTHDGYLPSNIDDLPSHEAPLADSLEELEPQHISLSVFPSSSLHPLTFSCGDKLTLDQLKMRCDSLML

recombinant human IL-12 (from UniProt P29459 23-219; P29460 23-328) (ligand)
half maximal effective concentration (EC50) of p-STAT4 (Tyr693) in activated human T cells, AlphaLISA: 8.95 pM
